Columns and labels:
rat PDGF-R β = rat PDGF-R β (rat, UniProt Q05030); test: cell-based or functional assay
[1] = target: T1, PDGF-R β expressed on transfectant cells (CHO PDGF-R β transfectants, CHO C4 line); Sp2/0 PDGF-R β … (human, UniProt P09619); test: competition with 125I-labeled M4TS.11 on Sp2/0 PDGF-R β transfectant cells
Protocol: (§1) Figure 11: FIG. 11 is a graph depicting competitive binding of muM4TS.11 (closed squares) and HuM4TS.11 (open squares) and HuM4TS.11(gamma 1) (open diamonds). Increasing concentrations of cold competitor antibodies were incubated with the Sp2/0 transfectants expressing PDGF-R β in the presence of radiolabeled tracer muM4TS.11, and the ratio of bound/free radioactivity determined. The results shown are mean values of triplicate samples.
(§2) To assess the ability of HuM4TS.11 to compete with the muAb for receptor binding, increasing concentrations of the two antibodies were respectively incubated on ice for one hour with Sp2/0 PDGF-R β transfectant cells and a fixed amount of tracer ^125I-labeled M4TS.11. The sample tubes were processed as in the blocking experiment described. HuM4TS.11 competed less well than muM4TS.11 (FIG. 11).

[2] = target: T1, PDGF-R β expressed on transfectant …; test: competition with 125I-labeled muM4TS.11 on Sp2/0 PDGF-R β transfectant cells (FIG. 11)
Protocol: as §1, §2
(§3) Loss of binding affinity due to the gamma4 isotype has been observed in another antibody (Horgan et al. (1993) J. Immunol. 150:5400), and may be due to structural constraints imposed on the particular antibody by the gamma4 hinge region. See, Horgan et al. (1993).

[3] = target: T1, PDGF-R β expressed on transfectant …; test: competition with 125I-labeled muM4TS.11 on Sp2/0 PDGF-R β transfectant cells
Protocol: as §1, §2, §3

Binder | IC50 of inhibition of PDGF BB-stimulated proliferation of rat aortic smooth muscle cells (rat PDGF-R β) [µg/mL] | Ka [1] [M⁻¹] | fold difference in competition against muM4TS.11 [2] [fold] | Ka [3] [M⁻¹]
muM4TS.11 (antibody, V domains shown) VH: QVQLQQSGAEVAKPGASVKMSCKASGYTFTNCWMHWVKQRPGQGLEWIGYINPTTGYSEYNQNFKDKATLTADKSSNTAYIQLSSLTSEDSAVYYCTSNYGHYDWFANWGQGTLVT VL: DIVLTQSPPSLAVSLGQRATISCRASESVDSYGNSFMHWYQQKPGQPPKLLIYRASNLESGIPARFSGGGSRTDFTLTINPVEADDVATYYCQQSNEDPPTFGGGTKLEIK | ~0.5 | 5e+08 |  | 
HuM4TS.11(gamma1) (antibody, V domains shown) VH: QVQLVQSGAEVKKPGASVKVSCKASGYTFTNCWMHWVRQAPGQGLEWIGYINPTTGYSEYNQNFKDKATITADKSTSTAYMELSSLRSEDTAVYYCTSNYGHYDWFGNWGQGTLVT VL: DIQMTQSPSSLSASVGDRVTITCRASESVDSYGNSFMHWYQQKPGKAPKLLIYRASNLESGIPSRFSGSGSRTDFTLTISSLQPEDVATYYCQQSNEDPPTFGQGTKVEIK |  |  | ~3 | 1.6e+08
